Data on five molecules can be found in patent US20050182242A1, “Global analysis of protein activities using proteome chips” (priority 2001, published 2005).

In data set [1] the test system is phospholipids (phosphatidylinositols vs phosphatidylcholine). Description: Proteome chip lipid-binding screen, overall analysis of six liposomes (PI/PC specificity). The note with it: for identified as lipid-binding interactor: phospholipid liposome probes; for preferential binding of particular phosphatidylinositol lipids: compared with phosphatidylcholine. From the text:
FIGS. 4A-4D. Analysis of the phosphatidylinositol-binding proteins. To determine the phosphatidylinositol (“PI”)-binding specificity of 150 positive proteins, their binding signals were normalized against the corresponding binding signals of phosphatidylcholine (“PC”). Based on the ratios (“PI/PC”), the proteins were grouped into four categories: (A) 30 strong and specific, (B) 43 strong and nonspecific, (C) 19 weak and specific, and (D) 58 weak and nonspecific phosphatidylinositol-binding proteins. The intensity represents the PI/PC signal ratio as shown by the scale in the figure. The column, labeled “10^n” to the right of the PI/PC binding ratios indicates the maximum binding signal intensity (open boxes) and its confidence interval (solid horizontal lines); the numbers indicate the log of the values. Boxes in the three columns to the right of the confidence interval column indicate membrane-associated proteins (“Membrane”), kinases (“Kinase”), and uncharacterized ORFs (“Unknown”), respectively.
To identify PI-binding proteins in yeast, liposomes were used as probes because the liposome provides the most relevant physiological condition to assay the interactors. Six types of liposomes were used. Each contains phosphatidylcholine (“PC”) with 1% (w/w) N-(biotinoyl)-1,2-dihexadecanoyl-sn-glycero-3-phosphoethanolamine, triethylammonium salt (biotin DHPE). The biotinylated lipid serves as a label that can be detected by Cy3-streptavidin (21). In addition to PC, the five other liposomes contain either 5% (w/w) PI(3)P, PI(4)P, PI(3,4)P2, PI(4,5)P2, or PI(3,4,5)P3 (FIG. 3A).
The protein-liposome interaction was assayed as follows. Appropriate amounts of each lipid in chloroform were mixed and dried under nitrogen. The lipid mixture was resuspended in TBS buffer by vortexing. The liposomes were created by sonication. Blocked proteome chips were washed three to five times in PBS buffer, and the extra liquid on the glass surface was removed by tapping the slides vertically on a KIMWIPE™. 200 μl of liposome solution was added to the proteome chip and immediately covered by a hydrophobic plastic cover slip (GRACE BIO-LAB™, USA). After trapped air bubbles were removed, the chip was incubated in a humidity chamber at RT for one hour. To remove the cover slip, the chip was immersed into large volume of PBS buffer (50 ml), so that the slip would float away. The chip was then moved to a second PBS bath (>50 ml) and washed 3×5 min with shaking at RT. After removing extra liquid on the surface of the chip, about 100 μl of Cy3 or Cy5 conjugated streptavidin (PIERCE™, USA; 1:2000 to 1:4000 dilution) was added to the surface and covered by a hydrophobic plastic cover slip (GRACE BIO-LABS™, USA). The chip was incubated for greater than 30 min in the dark at RT. The chip was then washed as described above. To completely remove the liquid on the chip, the chip was spun to dryness at 1500-2000 rpm for 5-10 min at RT.
An algorithm was devised to assist in the identification of positive signals (42). Fifty-two (35%) of the interactors (i.e., lipid-binding proteins) correspond to uncharacterized proteins thus ascribing the first biochemical activities to those proteins.
The interactors (i.e., phospholipid-binding proteins) were grouped in several ways (42). First, the interactors were sorted according to whether they bound lipids strongly or weakly, based on the phospholipid-binding signal relative to the amount of GST (FIG. 4). Slightly more (72%) of the strong lipid binding proteins (FIGS. 4A and 4B) were characterized relative to the weakly binding proteins (54%) (FIGS. 4C and 4D). Many of the strong lipid-binding proteins are membrane-associated, or are predicted to be associated with membranes, whereas fewer of the weaker binding proteins appear to be associated with membranes (FIG. 4, “Membrane” column). […] Moreover, thirteen of the seventeen protein kinases bind very strongly to the phospholipids. […]

The subject of data set [2] is phosphatidylcholine (PC) liposomes. The experiment in a line: Yeast proteome chip probed with PC liposomes. The conditions noted are these: liposome binding signal on yeast proteome chip, Cy3-streptavidin detection. The gist of the method: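 Binding detected by fluorescent streptavidin (Cy3 or Cy5, >30 min in the dark at RT) recognizing biotin-DHPE (1% w/w) in PC liposomes, which carried 5% (w/w) of the named phosphoinositide unless PC-only. Liposomes, made by sonication in TBS, were applied to blocked chips for 1 h at RT, then washed in PBS.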

The test system of a further data set is PI(3,4)P2 liposomes. Description: Yeast proteome chip probed with PI(3,4)P2 liposomes. The conditions noted are these: liposome binding signal on yeast proteome chip, Cy3-streptavidin detection.
For another data set, the system named is PI(3,4,5)P3 liposomes. Description: Yeast proteome chip probed with PI(3,4,5)P3 liposomes. The note with it: liposome binding signal on yeast proteome chip, Cy3-streptavidin detection.
For the next data set, the system named is PI(4)P liposomes. The experiment in a line: Yeast proteome chip probed with PI(4)P liposomes. The conditions noted are these: liposome binding signal on yeast proteome chip, Cy3-streptavidin detection.
A further data set has as its system PI(4,5)P2 liposomes. Description: Yeast proteome chip probed with PI(4,5)P2 liposomes. The conditions noted are these: liposome binding signal on yeast proteome chip, Cy3-streptavidin detection.
For another data set, the system named is PI(3)P liposomes. Description: Yeast proteome chip probed with PI(3)P liposomes. The conditions noted are these: liposome binding signal on yeast proteome chip, Cy3-streptavidin detection.

B1: GPM3: yeast phosphoglycerate mutase, GST-HisX6 fusion (protein, UniProt Q12326 1-303, looked up)
Phosphoglycerate mutase 3: MTVTDTFKLFILRHGQSELNSENIFCGWIDAQLTEKGKSQARHSAKLIKQFCDSNNISLPQIGYTSRLIRTQQTMDVILEELGLKHTNYVITTNTNIKEELQDTRFEGSMPVLQTWRLNERHYGAWQGQRKPDILKEYGKEKYMYIRRDYNGKPPKVNLNLEMVQEENDQGSSTGYDFKEPNRHLKYGPEEKANERLPESESLCEVVVRLKPFLNNVVLSTANKISQESCVIVGHGSSVRSLLKVLEGISDEDIKDVDIPNGIPLVIELDRDNYSFVRKFYLDPESAKVNAQMVRDEGFEKNP
modifications: GST-His6 tag
notes: yeast phosphoglycerate mutase, GST-HisX6 fusion
B1: the “identified as lipid-binding interactor” value in data set [1] is reported as “identified”. This molecule gave a PC in data set [2] of 137.64. The “PI(3, 4)P2” value with PI(3,4)P2 liposomes came out at 85.40. Moreover, the “PI(3, 4, 5)P3” value with PI(3,4,5)P3 liposomes is 66.04. For the same molecule, the “PI(4)P” value in the data set with PI(4)P liposomes is 85.35. Further, in the data set with PI(4,5)P2 liposomes, the “PI(4, 5)P2” value is on record as 112.57. In the data set on PI(3)P liposomes, the “PI(3)P” value worked out at 42.50.

B2: PYK1: yeast pyruvate kinase, GST-HisX6 fusion (protein, UniProt P00549 2-500, looked up)
Pyruvate kinase 1: SRLERLTSLNVVAGSDLRRTSIIGTIGPKTNNPETLVALRKAGLNIVRMNFSHGSYEYHKSVIDNARKSEELYPGRPLAIALDTKGPEIRTGTTTNDVDYPIPPNHEMIFTTDDKYAKACDDKIMYVDYKNITKVISAGRIIYVDDGVLSFQVLEVVDDKTLKVKALNAGKICSHKGVNLPGTDVDLPALSEKDKEDLRFGVKNGVHMVFASFIRTANDVLTIREVLGEQGKDVKIIVKIENQQGVNNFDEILKVTDGVMVARGDLGIEIPAPEVLAVQKKLIAKSNLAGKPVICATQMLESMTYNPRPTRAEVSDVGNAILDGADCVMLSGETAKGNYPINAVTTMAETAVIAEQAIAYLPNYDDMRNCTPKPTSTTETVAASAVAAVFEQKAKAIIVLSTSGTTPRLVSKYRPNCPIILVTRCPRAARFSHLYRGVFPFVFEKEPVSDWTDDVEARINFGIEKAKEFGILKKGDTYVSIQGFKAGAGHSNTLQVSTV
modifications: GST-HisX6 tag
notes: yeast pyruvate kinase, GST-HisX6 fusion
Consider B2, for which the “identified as lipid-binding interactor” value in data set [1] is listed as “identified”. Further, in data set [2], the PC is 6.46. The “PI(3, 4)P2” value with PI(3,4)P2 liposomes was −5.02. For the same molecule, the “PI(3, 4, 5)P3” value in the data set on PI(3,4,5)P3 liposomes is given as −1.12. The “PI(4)P” value with PI(4)P liposomes was 10.45. Besides, the “PI(4, 5)P2” value with PI(4,5)P2 liposomes is given as −13.06. The “PI(3)P” value in the data set with PI(3)P liposomes was −9.00.

B3: SPS2: yeast sporulation protein of prospore membrane, GST-HisX6 fusion (protein, UniProt P08459 57-475, looked up)
Sporulation-specific protein 2: AVEPNGGPNILDHNIMLVNTNATIPKKEQTDFEVISPTKQTQVDEDCKKGLYHIENAGNLIELQAKCWKVVGNIEISSNYSGSLIDLGLIREIEGDLIIKNNKHIFRIQGYNLESLGKLELDSLTSFVSLDFPALKEVETVDWRVLPILSSVVINGNIKKIKNIIISDTALTSIDYFNNVKKVDIFNINNNRFLENLFASLESVTKQLTVHSNAKELELDLSNLHTVENMTIKDVSEIKLAKLSSVNSSLEFIENQFSSLELPLLAKVQGTLGLIDNKNLKKLNFSNATDIQGGLMIANNTELAKIDFFPKLRQIGGAIYFEGSFDKIDLPELKLVKGSAYIKSSSEELNCEEFTSPKAGRSIIRGGKIECTSGMKSKMLNVDEEGNVLGKQETDNDNGKKEKGKNGAKSQGSSKKMEN
modifications: GST-His6 tag
notes: yeast sporulation protein of prospore membrane, GST-HisX6 fusion
With B3, in data set [1], the “preferential binding of particular phosphatidylinositol lipids” value (“preferential binding” below) was “preferentially interacts with PI(3)P”. In data set [2], this molecule came in with a PC of 44.61. Further, in the data set on PI(3,4)P2 liposomes, the “PI(3, 4)P2” value is 54.63. The “PI(3, 4, 5)P3” value with PI(3,4,5)P3 liposomes is listed as 25.31. In the data set with PI(4)P liposomes, the “PI(4)P” value was found to be 47.47. Moreover, the “PI(4, 5)P2” value with PI(4,5)P2 liposomes stood at 64.02. Also, in the data set with PI(3)P liposomes, the “PI(3)P” value came out at 18.50.

B4: STP22: yeast protein required for vacuolar targeting of plasma membrane proteins, GST-HisX6 fusion (protein, UniProt P25604 1-385, looked up)
Suppressor protein STP22 of …: MSANGKISVPEAVVNWLFKVIQPIYNDGRTTFHDSLALLDNFHSLRPRTRVFTHSDGTPQLLLSIYGTISTGEDGSSPHSIPVIMWVPSMYPVKPPFISINLENFDMNTISSSLPIQEYIDSNGWIALPILHCWDPAAMNLIMVVQELMSLLHEPPQDQAPSLPPKPNTQLQQEQNTPPLPPKPKSPHLKPPLPPPPPPQPASNALDLMDMDNTDISPTNHHEMLQNLQTVVNELYREDVDYVADKILTRQTVMQESIARFHEIIAIDKNHLRAVEQAIEQTMHSLNAQIDVLTANRAKVQQFSSTSHVDDEDVNSIAVAKTDGLNQLYNLVAQDYALTDTIECLSRMLHRGTIPLDTFVKQGRELARQQFLVRWHIQRITSPLS
modifications: GST-His6 fusion tag
For the molecule B4, the “preferential binding” value in data set [1] is “preferentially binds PI(4)P”. Also, the PC in data set [2] is reported as 2.93. Further, the “PI(3, 4)P2” value in the data set with PI(3,4)P2 liposomes is on record as 8.79. In addition, the “PI(3, 4, 5)P3” value in the data set with PI(3,4,5)P3 liposomes is on record as 22.05. The “PI(4)P” value in the data set with PI(4)P liposomes came to 10.89. Besides, the “PI(4, 5)P2” value with PI(4,5)P2 liposomes is listed as −8.27. The “PI(3)P” value in the data set on PI(3)P liposomes is 51.50.

B5: ATP1: yeast alpha subunit of F1-ATP synthase, GST-HisX6 fusion (protein, UniProt P07251 36-545, looked up)
ATP synthase subunit alpha, …: ASTKAQPTEVSSILEERIKGVSDEANLNETGRVLAVGDGIARVFGLNNIQAEELVEFSSGVKGMALNLEPGQVGIVLFGSDRLVKEGELVKRTGNIVDVPVGPGLLGRVVDALGNPIDGKGPIDAAGRSRAQVKAPGILPRRSVHEPVQTGLKAVDALVPIGRGQRELIIGDRQTGKTAVALDTILNQKRWNNGSDESKKLYCVYVAVGQKRSTVAQLVQTLEQHDAMKYSIIVAATASEAAPLQYLAPFTAASIGEWFRDNGKHALIVYDDLSKQAVAYRQLSLLLRRPPGREAYPGDVFYLHSRLLERAAKLSEKEGSGSLTALPVIETQGGDVSAYIPTNVISITDGQIFLEAELFYKGIRPAINVGLSVSRVGSAAQVKALKQVAGSLKLFLAQYREVAAFAQFGSDLDASTKQTLVRGERLTQLLKQNQYSPLATEEQVPLIYAGVNGHLDGIELSRIGEFESSFLSYLKSNHNELLTEIREKGELSKELLASLKSATESFVATF
modifications: GST-His6 tag
notes: yeast alpha subunit of F1-ATP synthase, GST-HisX6 fusion
As to B5, in data set [1], the “preferential binding” value is reported as “preferentially binds PI(3,4)P2”. This molecule came in with a PC in data set [2] of 0.29. Besides, the “PI(3, 4)P2” value in the data set with PI(3,4)P2 liposomes is 11.93. The “PI(3, 4, 5)P3” value in the data set on PI(3,4,5)P3 liposomes is recorded as 26.44. Moreover, the “PI(4)P” value in the data set on PI(4)P liposomes is 28.09. Further, the “PI(4, 5)P2” value with PI(4,5)P2 liposomes is listed as 46.38.
